The values below come from the supplement of paper PMC9112550, “Optimization of the antimicrobial peptide Bac7 by deep mutational scanning” (BMC Biology, 2022).

In the data set the test system is Escherichia coli TOP10. In words: shrunken log2 fold change of peptide-encoding DNA abundance (4.5 h post-induction vs induction); higher = less antimicrobial activity (less host growth inhibition). To be noted: time post-induction: 4.5 h; library: site-saturation at positions 5, 18, 19, 20.
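Note: peptides expressed intracellularly from a pBAD plasmid library in pooled LB shake-flask culture, induced with 0.3% L-arabinose, DNA abundance read by NGS, three biological replicates, DESeq2 with apeglm shrinkage.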

On to RRIRDRPPRLPRPRPRPEFPPRP, for which the “shrunken log2 fold change” value is -0.00168.

Regarding RRIRGRPPRLPRPRPRPNASPRP, the “shrunken log2 fold change” value came to 0.496.

Consider RRIRWRPPRLPRPRPRPRQWPRP, for which the “shrunken log2 fold change” value stood at 0.0802.

For the sequence RRIRCRPPRLPRPRPRPDCWPRP, the “shrunken log2 fold change” value turned out to be 0.23.

RRIRMRPPRLPRPRPRPRMQPRP: the “shrunken log2 fold change” value was found to be 0.598.

On to RRIRVRPPRLPRPRPRPKMQPRP, for which the “shrunken log2 fold change” value was found to be 0.0937.

As for RRIRGRPPRLPRPRPRPKMFPRP, the “shrunken log2 fold change” value amounted to 0.065.

Regarding RRIRVRPPRLPRPRPRPYTAPRP, the “shrunken log2 fold change” value is -0.649.

In the case of RRIRKRPPRLPRPRPRPQCRPRP, the “shrunken log2 fold change” value was determined as 0.162.

On to RRIRWRPPRLPRPRPRPGHKPRP, for which the “shrunken log2 fold change” value was -0.14.

In the case of RRIRYRPPRLPRPRPRPHFQPRP, the “shrunken log2 fold change” value is -0.399.

For RRIRVRPPRLPRPRPRPDIGPRP, the “shrunken log2 fold change” value is -0.173.

Regarding RRIRGRPPRLPRPRPRPMRKPRP, the “shrunken log2 fold change” value amounted to 1.37.

For the sequence RRIRQRPPRLPRPRPRPRLNPRP, the “shrunken log2 fold change” value was -0.111.

RRIRYRPPRLPRPRPRPTTLPRP: the “shrunken log2 fold change” value was -0.0157.

Take RRIRGRPPRLPRPRPRPVVLPRP: the “shrunken log2 fold change” value was found to be 0.4.

Regarding RRIRTRPPRLPRPRPRPSKDPRP, the “shrunken log2 fold change” value is -0.61.

Take RRIRVRPPRLPRPRPRPNFQPRP: the “shrunken log2 fold change” value was -0.175.

On to RRIRIRPPRLPRPRPRPFSHPRP, for which the “shrunken log2 fold change” value is -0.177.

Regarding RRIRWRPPRLPRPRPRPQAWPRP, the “shrunken log2 fold change” value was determined as 0.23.

For the sequence RRIRERPPRLPRPRPRPALWPRP, the “shrunken log2 fold change” value was determined as 0.241.

In the case of RRIRHRPPRLPRPRPRPTRNPRP, the “shrunken log2 fold change” value was -0.0346.

As to RRIRSRPPRLPRPRPRPPLDPRP, the “shrunken log2 fold change” value stood at 0.289.

With RRIRQRPPRLPRPRPRPPPQPRP, the “shrunken log2 fold change” value was 0.712.

With RRIRIRPPRLPRPRPRPMQDPRP, the “shrunken log2 fold change” value is -0.223.

As to RRIRDRPPRLPRPRPRPYPYPRP, the “shrunken log2 fold change” value was -0.0176.

For RRIRARPPRLPRPRPRPFEPPRP, the “shrunken log2 fold change” value turned out to be 0.276.

RRIRHRPPRLPRPRPRPKDHPRP: the “shrunken log2 fold change” value is -0.274.

RRIRSRPPRLPRPRPRPSIHPRP: the “shrunken log2 fold change” value is -0.479.

In the case of RRIRYRPPRLPRPRPRPMHPPRP, the “shrunken log2 fold change” value was -0.0223.

Turning to RRIRPRPPRLPRPRPRPEIPPRP, the “shrunken log2 fold change” value came out at 0.0702.

As to RRIRQRPPRLPRPRPRPNARPRP, the “shrunken log2 fold change” value is -0.0902.

On to RRIRARPPRLPRPRPRPLWNPRP, for which the “shrunken log2 fold change” value amounted to 0.0673.

On to RRIRARPPRLPRPRPRPITGPRP, for which the “shrunken log2 fold change” value is -0.00407.

As for RRIRTRPPRLPRPRPRPMELPRP, the “shrunken log2 fold change” value is -0.172.

Turning to RRIRCRPPRLPRPRPRPPVAPRP, the “shrunken log2 fold change” value stood at 0.443.

With RRIRERPPRLPRPRPRPGQCPRP, the “shrunken log2 fold change” value is 0.0236.

Turning to RRIRARPPRLPRPRPRPDLKPRP, the “shrunken log2 fold change” value came to 0.523.

As for RRIRVRPPRLPRPRPRPSYNPRP, the “shrunken log2 fold change” value was -0.485.

On to RRIRSRPPRLPRPRPRPPTDPRP, for which the “shrunken log2 fold change” value amounted to 0.429.

Consider RRIRRRPPRLPRPRPRPACNPRP, for which the “shrunken log2 fold change” value amounted to 0.654.

With RRIRKRPPRLPRPRPRPARFPRP, the “shrunken log2 fold change” value was determined as 0.396.

Take RRIRCRPPRLPRPRPRPFLPPRP: the “shrunken log2 fold change” value is -0.265.

As to RRIRPRPPRLPRPRPRPIIYPRP, the “shrunken log2 fold change” value was -0.256.

On to RRIRTRPPRLPRPRPRPNWYPRP, for which the “shrunken log2 fold change” value is -0.382.

As for RRIRWRPPRLPRPRPRPHAGPRP, the “shrunken log2 fold change” value is -0.0783.

With RRIRYRPPRLPRPRPRPWCVPRP, the “shrunken log2 fold change” value was -0.55.

Consider RRIRARPPRLPRPRPRPWVGPRP, for which the “shrunken log2 fold change” value is 0.271.

In the case of RRIRHRPPRLPRPRPRPFIPPRP, the “shrunken log2 fold change” value came out at 0.0413.

For the sequence RRIRMRPPRLPRPRPRPACKPRP, the “shrunken log2 fold change” value was 0.484.

RRIRWRPPRLPRPRPRPIQFPRP: the “shrunken log2 fold change” value was -0.0539.

In the case of RRIRIRPPRLPRPRPRPFQCPRP, the “shrunken log2 fold change” value stood at 0.00367.

Consider RRIRRRPPRLPRPRPRPYPNPRP, for which the “shrunken log2 fold change” value is -0.0882.

In the case of RRIRSRPPRLPRPRPRPMQLPRP, the “shrunken log2 fold change” value was found to be 0.115.

As to RRIRDRPPRLPRPRPRPVRPPRP, the “shrunken log2 fold change” value is 1.07.

As for RRIRYRPPRLPRPRPRPKGKPRP, the “shrunken log2 fold change” value is -0.215.

In the case of RRIRMRPPRLPRPRPRPGKIPRP, the “shrunken log2 fold change” value turned out to be 0.0308.

With RRIRCRPPRLPRPRPRPRNEPRP, the “shrunken log2 fold change” value is -0.0561.

RRIRLRPPRLPRPRPRPAIAPRP: the “shrunken log2 fold change” value amounted to 0.118.

Turning to RRIRHRPPRLPRPRPRPDVAPRP, the “shrunken log2 fold change” value was -0.00146.

As to RRIRDRPPRLPRPRPRPFNQPRP, the “shrunken log2 fold change” value is -0.733.

As for RRIRARPPRLPRPRPRPYGQPRP, the “shrunken log2 fold change” value is -0.163.

For the sequence RRIRLRPPRLPRPRPRPCFGPRP, the “shrunken log2 fold change” value is -0.0493.

In the case of RRIRCRPPRLPRPRPRPEIQPRP, the “shrunken log2 fold change” value stood at 0.141.

With RRIRGRPPRLPRPRPRPQEFPRP, the “shrunken log2 fold change” value is 0.27.

As to RRIRWRPPRLPRPRPRPPTVPRP, the “shrunken log2 fold change” value turned out to be 0.144.

With RRIRHRPPRLPRPRPRPQPPPRP, the “shrunken log2 fold change” value stood at 0.373.

With RRIRYRPPRLPRPRPRPDAQPRP, the “shrunken log2 fold change” value is -0.0145.

For RRIRIRPPRLPRPRPRPMFLPRP, the “shrunken log2 fold change” value is -0.624.

As for RRIRMRPPRLPRPRPRPVRMPRP, the “shrunken log2 fold change” value was 0.132.

Turning to RRIRQRPPRLPRPRPRPICWPRP, the “shrunken log2 fold change” value was found to be 0.0153.

Consider RRIRFRPPRLPRPRPRPNLKPRP, for which the “shrunken log2 fold change” value was -0.553.

As for RRIRCRPPRLPRPRPRPWCKPRP, the “shrunken log2 fold change” value worked out at 0.145.

In the case of RRIRNRPPRLPRPRPRPNPKPRP, the “shrunken log2 fold change” value was 0.284.

Turning to RRIRVRPPRLPRPRPRPWIYPRP, the “shrunken log2 fold change” value was 0.0875.

Take RRIRPRPPRLPRPRPRPADEPRP: the “shrunken log2 fold change” value was 0.0954.

Take RRIRCRPPRLPRPRPRPQDIPRP: the “shrunken log2 fold change” value was -0.213.

With RRIRCRPPRLPRPRPRPCKFPRP, the “shrunken log2 fold change” value was -0.431.

Turning to RRIRWRPPRLPRPRPRPVCEPRP, the “shrunken log2 fold change” value came out at 0.825.

Take RRIRMRPPRLPRPRPRPIHIPRP: the “shrunken log2 fold change” value is -0.221.

RRIRPRPPRLPRPRPRPARHPRP: the “shrunken log2 fold change” value came out at 0.616.

As for RRIRHRPPRLPRPRPRPMWVPRP, the “shrunken log2 fold change” value is -0.015.

With RRIRGRPPRLPRPRPRPRCIPRP, the “shrunken log2 fold change” value was 0.273.

Take RRIRGRPPRLPRPRPRPDLYPRP: the “shrunken log2 fold change” value is 0.574.

Turning to RRIRLRPPRLPRPRPRPTQHPRP, the “shrunken log2 fold change” value came out at 0.218.

As to RRIRGRPPRLPRPRPRPSESPRP, the “shrunken log2 fold change” value turned out to be 0.504.

As to RRIRTRPPRLPRPRPRPSAGPRP, the “shrunken log2 fold change” value is -0.0241.

As to RRIRPRPPRLPRPRPRPKETPRP, the “shrunken log2 fold change” value is 0.0101.

Consider RRIRFRPPRLPRPRPRPWHKPRP, for which the “shrunken log2 fold change” value is -0.413.

For the sequence RRIRIRPPRLPRPRPRPELRPRP, the “shrunken log2 fold change” value came to 0.0361.

In the case of RRIRNRPPRLPRPRPRPNLYPRP, the “shrunken log2 fold change” value is -0.515.

For RRIRERPPRLPRPRPRPVKGPRP, the “shrunken log2 fold change” value amounted to 0.0229.

On to RRIRNRPPRLPRPRPRPQYCPRP, for which the “shrunken log2 fold change” value was -0.186.

On to RRIRMRPPRLPRPRPRPYAHPRP, for which the “shrunken log2 fold change” value is 0.013.

As for RRIRDRPPRLPRPRPRPHQNPRP, the “shrunken log2 fold change” value was -0.303.

As to RRIRIRPPRLPRPRPRPDTKPRP, the “shrunken log2 fold change” value is -0.188.

For RRIRARPPRLPRPRPRPPDTPRP, the “shrunken log2 fold change” value is 0.764.

Consider RRIRKRPPRLPRPRPRPSMSPRP, for which the “shrunken log2 fold change” value worked out at 0.14.

With RRIRTRPPRLPRPRPRPVYVPRP, the “shrunken log2 fold change” value is -0.62.

In the case of RRIRQRPPRLPRPRPRPAVDPRP, the “shrunken log2 fold change” value was 0.963.

With RRIRLRPPRLPRPRPRPKLRPRP, the “shrunken log2 fold change” value was -0.00715.

Regarding RRIRARPPRLPRPRPRPALAPRP, the “shrunken log2 fold change” value amounted to 0.554.

On to RRIRVRPPRLPRPRPRPWIAPRP, for which the “shrunken log2 fold change” value turned out to be 0.201.

Turning to RRIRDRPPRLPRPRPRPDGMPRP, the “shrunken log2 fold change” value is 0.232.

On to RRIRARPPRLPRPRPRPQRWPRP, for which the “shrunken log2 fold change” value is 0.172.

As to RRIRMRPPRLPRPRPRPCPGPRP, the “shrunken log2 fold change” value was -0.000588.

On to RRIRARPPRLPRPRPRPLHAPRP, for which the “shrunken log2 fold change” value came to 0.554.

In the case of RRIRTRPPRLPRPRPRPSDKPRP, the “shrunken log2 fold change” value was -0.0752.

For RRIRMRPPRLPRPRPRPWYYPRP, the “shrunken log2 fold change” value was -0.0257.

For RRIRMRPPRLPRPRPRPSFWPRP, the “shrunken log2 fold change” value came out at 0.459.

Take RRIRKRPPRLPRPRPRPISHPRP: the “shrunken log2 fold change” value came to 0.17.

For RRIRPRPPRLPRPRPRPVHDPRP, the “shrunken log2 fold change” value is -0.115.

RRIRIRPPRLPRPRPRPDLYPRP: the “shrunken log2 fold change” value is -0.408.

For RRIRARPPRLPRPRPRPALVPRP, the “shrunken log2 fold change” value turned out to be 0.597.

RRIRDRPPRLPRPRPRPSKCPRP: the “shrunken log2 fold change” value was -0.317.

Regarding RRIRARPPRLPRPRPRPYYWPRP, the “shrunken log2 fold change” value was -0.77.

For the sequence RRIRYRPPRLPRPRPRPKTDPRP, the “shrunken log2 fold change” value was -0.863.

As for RRIRMRPPRLPRPRPRPGWIPRP, the “shrunken log2 fold change” value is -0.0121.

Regarding RRIRDRPPRLPRPRPRPKECPRP, the “shrunken log2 fold change” value is 0.184.

On to RRIRVRPPRLPRPRPRPHQTPRP, for which the “shrunken log2 fold change” value was -0.443.

Take RRIRVRPPRLPRPRPRPSLSPRP: the “shrunken log2 fold change” value is -0.303.

RRIRTRPPRLPRPRPRPYRQPRP: the “shrunken log2 fold change” value is -0.00615.

As to RRIRERPPRLPRPRPRPDSKPRP, the “shrunken log2 fold change” value was -0.312.

With RRIRPRPPRLPRPRPRPMYQPRP, the “shrunken log2 fold change” value is -0.207.

Turning to RRIRWRPPRLPRPRPRPKVKPRP, the “shrunken log2 fold change” value stood at 0.49.
